Measurements taken from US20230226096A1 (Orna Therapeutics, Inc., priority 2020, published 2023).

B1: Rafivirus LPXYC222841 (nucleic acid, listed as Rafivirus sp.)
DNA: GTGTCCGGGAAGCGACTCAAGCTTTTGACTGAGTCTCTACACCTTCATCCGTAACATCTTTAAGTTTATGTGCCTATGGACCTCTAGTGCACTGCCATCACCGGGGGTGTATTGGACTGGTTTTTCCACAATCCATTCATCCTGAGGAATTTTGGCTTTGTTACTAGGATGGTCCCACCACACGCTTATCTGTGCCTATTGTGTCAACCATGTTCTTAAGTAGTTGTGCCCGTGGGTGAGTAGATAACCACAACAATCCGATAAAGCATCTCGCAAGGATGTGAGTAATGGAGTGTATGTGCTACAGAGACCCACAACCTGAACCAAGAGAGACACAGTGAGGATTGTAAAGGGGGAACTCTTTGAAAGGGCATGTCCCGCAATTCCTACTGACTGACACCGGGGGTTGGTGTCGGTGGATTTTAGCAAATCCTGTTACTGGGTGATAGCCTTGTGCACTTCACTTGGTTCTTGTATAAGTGCTGTA
B2: Bat Iflavirus (nucleic acid, listed as Iflavirus sp.)
DNA: ACGAATCGGTATACGCTTCGGTACCTATTGTTGCAAGTTCGTTCCCTATTTTCGATTTGCCTGCCCGAATTTGACTCAAACAATTGTGACATACTATGTCTCTGTTTGAAAGCACTACACGAGTTTGCGCCCAGCATGTATGTTTTCAAGTCTTTTGTATAAGTCTGCCTCTATAGTGGTTTTCTTTGACCTTAAAGCCTTGTCAACCATCCTATATGCTGCATCGAGACTTGATGTCAATCTGCCTCTACTACGCAAATGTCTAGTAATTAGTTATAAGGTTTTACTATTTTCCCTCATTTCCAATTTTAGTTTGTAGTGTATGTGAGTATCATTCTTACTCCGACTGTTAAGAGAAACCAATTTATAGTCGTTAAATATGATAAATGGAATGAATGATGGTGTCATTTTAAAAACACTCTTCTCTATAGGCGTAAGCATTCTCGCTCTTAGAGTCGTAAAGAAGAAATGCCGTGTCTATCAGTATGTTATGCGATTTATTTTCTGCCACGCGCTTCTAGTGCAATCTAGTTGACATACAGACATTGCCTACCACTCGCGAGGGTCGACCGGTAGTGTAAGGAGTAAGTGATGATTTCCGCTTATTCTGTACCCTTTGCCTGGTGAGGACAGATCCTGACTAATTTTAAATATAAATGAACACTAGCTTCCAAG
B3: Breda virus (nucleic acid)
DNA: ATCACCTAGTACTTACAAGCGGGTCAAACCGCCCTCCGGAACGGTCATAACCCCCTCCCGAACGTGCGCTTGACGTGACTGGTCTTTCAGTCTAGCTTTCTGAGAAATACTCCGGGGTTGTAACCCACCATTTTGACCTTTGGTCAGTTTGGTAACACTCCAACCAAACAGCATCTGACCCACCTCCAGCTTGCTGCAGGCCATTTGGACCAAACGGGTTCAGATATCTTGTGGCTAAACCTCTGACCCACCTCCAGTTTACTGCAGGCCTTTTGGACTAAACGGGTACAGACTCTTTGTGGTTAGTTTTTAACTACCCACTGTTTAGCCGCCAACCTGATTTTTATTGTTACAAAATTTTGTGTTTACACATTATTTTCTTACGGTTGGCAGTTTGTTTGGTTGTTTGCACAGTTTTTGCTGATACCAATTTTTACTGTGCTTTTGGTGTTTTCGGCTAAGGCTGTTTTTCACATACTTAGTTTGCTTGAAGTAACCTTCACAACATCTGTTTTGTTTTTGGTTTCTAAGGTAAAGAGTTTCAGGAAAAAACATAGGCGCCCATCTTGTGGTGTCTAGTTTTAATTAATCTGGCAAACAAGTATCAAGTCATCGACTCCCTTTGGAGTGAGACTTACGAGTACCAATTCGCCTATTTTGGCCATCCATATAAAA
B4: Boone cardiovirus 1 (nucleic acid, listed as Cardiovirus sp.)
DNA: TACGATCGCTGTACATTCCACTACTGCCAATTAGCTCCCCCTTCCCGTTGCTCCCCTCTATAAGGAGAGCCTTCTCTTGCAAAGGTGAAGCCTTCACCCCCGGTCGAAGCCGCTTGGAATAAGACAGGGTTATTTTCTCCTCTCCTCGGCGCTTGCCTCTTCTAAGCTGAATAGGTTCTATCTATTCAGGCGGATGGTCTGGTCCGTTCCTTCTTGGACAGAGTGTGTATCTGGGTTTTCCGGATCTCGACCACACACTCACCAGAGCTCAGGAGTGATTAAGTCAAGGCCCGATCTGCGGCGAAAAGGAAATGAAGTATTTTGCAGCTGTAGCGACCTCTCAAGGCCAGCGGATTTCCCCACCTGGTGACAGGTGCCTCTGGGGCCAAAAGCCACGTGTTAATAGCACCCTTGAGAGCGGTGGTACCCCACCACCCTGCAAATTATGGATTTGACTTAGTAACTAAAAGATTGACTTGGCATACCTCAACCTGAGCGGCGGCTAAGGATGCCCTGAAGGTACCCGTGTTGAAATCGCTTCGGCGACCATGGATCTGATCAGGGGCCCTGCCTGGAGTGGTTCTATCCCACACAGCGTAGGGTTAAAAAACGTCTAACCGCCCCACAAAGACCCCGGCAGGGATGCCGGTTTCCTTTTTACCAATTCTTGACACT
B5: Bovine hepacivirus (nucleic acid, listed as Hepacivirus sp.)
DNA: CCATCGACACTCCAGGCTCACGGATTAAGTTAGGTTCCGCCGAAGCGGGCTAACCAGGCCCCTAGTAGGAGGCGCCTATCCCGTGAGCCCTTTCCCCACGGATTGAGTGGAGCTGGAGCTGGGAAGGACCGAGTACGGTCCAATCGAGAAGAACCCTGATGAACATTCCAGGCCTCTTCGGTAGATTTGGATATATCCACCAGTGAAGGCGGGGTCGTGGGTACAGGCCCCCTAGTCCACACAGCCTGATAGGGTCCTGCCGCAGGATCCGTGGGTGCGGCTGTACATGTACC
B6: Bovine viral diarrhea virus 3 (nucleic acid)
DNA: GTATACGCCCAGTTAGTTCAGGTGGACGTGTACGATTGGGTATCCCAAATTAATAATTTGGTTTAGGGACTAAATCCCCTGGCGAAGGCCGAAACAGGTTAACCATACCTTTAGTAGGACGAGCATAATGGGGGACTAGTGGTGGCAGTGAGCTCCCTGGATCACCGAAGCCCCGAGTACGGGGTAGTCGTCAATGGTTCGACGCATCAAGGAATGCCTCGAGATGCCATGTGGACGAGGGCGTGCCCACGGTGTATCTTAACCCAGGCGGGGGCCGCTTGGGTGAAATAGGGTTGTTATACAAGCCTTTGGGAGTACAGCCTGATAGGGTGTTGCAGAGACCTGCTACACCACTAGTATAAAAACTCTGCTGTACATGGCAC
B7: Bovine rhinitis A virus (nucleic acid)
DNA: TTTTGCGGCTCTGCCGCCGTTCGGGTTTTACCTGTTTTCACAGAGCAAAACAGGACCTCTAGTTTCGTGCTTAAACGAGATCATGCTCGAACTAGAACTATAACGCTGGTCACTGGACCCGTGCCGCGCCTTGCGGATCTTTGCGGGAATGGTGGCTAGTGGGCTGTGGAAGTGACTCTAACCACACGCCCCTCAAGTGTGGGAAAACACGAACTGGTGTAGCGACGACGATAGGCCTTGGGACACCCTCTCCAGTGATGGAGACCCAAGGGGCCAAAAGCCACGCCTTGTGCCCTGTCGTTCACAACCCCAGTGCAGTTCGTGCCAGTACCTGCTTTTGGGAAGTGTGCTTTGGACAGCTGAAAACAGTCCTAGTGGGAGACTAAGGATGCCCAGGAGGTACCCGGAGGTAACAAGTGACACTCTGGATCTGACTTGGGGAGAGCGGGTCTGCTTTACAGACGCCACTCTTTAAAAAACTTCTATGTCTCGTCAGGCACCGGAGGCCGGGCCTTTTCCTTTAAAACAATACACTTT
modifications: Bovine rhinitis A virus
B8: Botrytis cinerea mitovirus 2 RdRp (nucleic acid, listed as Mitovirus sp.)
DNA: GGAACTTTTCAGTTCCAGAAGTGGCTTTATTAAGCCTTCAAAGTTTACACTTTGAACCTGCGATTAATTCCCCATAGTGACTCTTGTTACTGTGAATTAGGAATAGTTGTAGTTCAACTTCTAATGAGGTGAACAATATAATAACTCATCTTATTAACCCTATACGTAGACAATTGTCCAAAGAGACAGTTGGAATTCTGCCAATCTGGAATGTTTGGTACGCGTAGAAGATAATAAGAGACCCTCTATTCCCCTGCCTCATGACTAAGTCATGGCCCGGGGTGTAATAGAGATACTTTTATATATTATACAATC
B9: Bovine nidovirus TCH5 (nucleic acid, listed as Bovine nidovirus)
DNA: CACCAATAGATTAGTCAAGCTGTCTATAGGCATAAACTAACCCCCAACCCCATTACCCCGGGGCCAGGTGGGCCGCCGCCTTCGGGCAAACCCGTGCGCTGGTATAATCAAGGTTCACAGCCAGATTCACTGCCGGTTAGCTAGTGGGGCGGTAGCCTGGCAAAACCCGAAGAGGTTGGAAAGGGAACTTCAGGGTAGTTTATCCTAGGCTAGCGTAGCTACAGTTCGGTCAAGATAACCGTCCTGGTGCTAGGGCTAGTAGAGACAGTGGTAACTTGGACAAGGGTCCAGGGCCACTTTAGGGAATACCCTACGGAAGGCTAGGTCCGTAAGGAAGACCCCCGCAGTTGTCCGCGGTTGAGCAGAGCTCCTGCGTAGACAAAAGGCAAAAAGTGGATTACATTCGCCTGCAGGAAAAGGCAAACGTCGTTGGAGTCGGAGCTAAAGTACTGGACGATTGATACCACGCCTGCTGCGGTAGATAAA
B10: Bat dicibavirus (nucleic acid)
DNA: GTATAGCACCGGAATGGTATTTTACTACTCCAAGTATACGTACTAGGAGTTAAACCCTGTAATTTACAGGGGATTTAGTGACTTTTATCCGTAAAAGTCGATTGGACGTTAATCGGTAACGAGGCCAAGTACCGTGAACCAATTTAAAAACGTATTTTCTCATGTGGTAGAACCAACTTGGAAATAGCATGGCATATAGGTTGTTTAGGG
B11: Bovine picornavirus isolate TCH6 (nucleic acid)
DNA: TTGGATCTGAGCAGGGGCCCCCTTTGGGTTGCTTTACAACTCAACTGGGGGTTAAAAAACGTCTAACCCGACACGCCAGAGGGATCTGGTTTCCTTTTATTTCTTTTACTCACCACTGGATGCAGATTGACGATAAACGTTGTTGTTTGTGACTATTGACTTGATCTGCTTCTACGGGTTTACTTTCACTGTTATACTTCTTGCTTTGTTTGGTGTTCACTGTACTTTGTCTCCTTCTACATTTCACA
B12: Botrytis cinerea mitovirus 4 RdRp (nucleic acid, listed as Mitovirus sp.)
DNA: GCCCCGCCGACCTTCCTATTTATTTCTAAATAGGAAGGTCCCGACTAGTCGGATAATTCGGTTTAACGAATTATGGTTAGATCTATTAAAGTTAAAATAGATTGAATTTCTTTCTCATCCTCCTTATTCCTATACTTTGGGAGTAAATGACAAATGTCTATCCTCAAACCGAAATGGCTTAAGTGATGAATTTGAAAGAAAGGTAGGTTTTAAGAATATAAGGCATCAATATATTATACCCTTGAATGTTAAGTGACCACGGCGTGACGATTAGGGCTATCTTAGGATAGACAGCCATCTAACGCGACAGCAGTGGAAATCAGCTTAGCATCTCAAGATCATGTATAATATATACATAACCTTACAATTATAAAACCAAACCAAAACACACTATAATTTTATATAAATTATAGAAGTATCGGACCTGGACGGTACCTACTATTAACTGATAGTAGCCAAATGCAGGAAGCTC

tested on: HEK293 cells; assay type: cell-based, human; details: luminescence from secreted Gluc in supernatant 24 hours after transfection of HEK293 cells; circular RNA encoding Gluc with the named IRES (UTR truncated to 675 nt)

Molecule | Expression
B1 | 2.22E+05
B2 | 9.76E+04
B3 | 1.16E+05
B4 | 2.62E+06
B5 | 1.89E+05
B6 | 2.70E+06
B7 | 3.62E+06
B8 | 8.73E+04
B9 | 1.17E+05
B10 | 7.43E+04
B11 | 1.21E+05
B12 | 9.68E+04
